Laboratory results reported in US6699969 (University of California, dated 2004).

T1: baculovirus-expressed S. purpuratus katanin p80 subunit with N-terminal His(6) tag (Strongylocentrotus purpuratus, UniProt O61585 1-690)
T1 construct: Expressed in Sf9 cells and purified on Ni-NTA; GenBank AF052433; also called p80 katanin; recombinant p80
T1 sequence: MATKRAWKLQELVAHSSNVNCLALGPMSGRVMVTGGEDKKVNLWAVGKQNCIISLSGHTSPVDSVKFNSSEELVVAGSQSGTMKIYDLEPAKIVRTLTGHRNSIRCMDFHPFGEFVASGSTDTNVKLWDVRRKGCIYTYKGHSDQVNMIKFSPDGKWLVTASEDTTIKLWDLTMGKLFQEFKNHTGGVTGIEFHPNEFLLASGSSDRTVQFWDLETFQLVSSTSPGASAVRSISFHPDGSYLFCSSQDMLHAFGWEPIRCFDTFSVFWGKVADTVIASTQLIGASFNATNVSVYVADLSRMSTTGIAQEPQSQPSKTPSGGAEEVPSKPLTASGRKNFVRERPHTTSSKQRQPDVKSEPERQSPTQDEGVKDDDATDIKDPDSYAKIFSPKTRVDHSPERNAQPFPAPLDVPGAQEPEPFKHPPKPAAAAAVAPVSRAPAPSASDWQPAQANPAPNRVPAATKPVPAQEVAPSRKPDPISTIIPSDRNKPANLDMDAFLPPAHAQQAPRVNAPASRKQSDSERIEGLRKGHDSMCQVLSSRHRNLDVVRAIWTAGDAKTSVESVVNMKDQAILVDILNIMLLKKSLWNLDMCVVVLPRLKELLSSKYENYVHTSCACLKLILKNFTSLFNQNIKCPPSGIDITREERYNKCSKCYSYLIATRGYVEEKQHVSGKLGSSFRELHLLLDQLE

T2: p80 delta 560-690, S. purpuratus p80 katanin deletion lacking the C-terminal 130 amino acids, with N-terminal … (Strongylocentrotus purpuratus, UniProt O61585 1-559)
T2 construct: Residues 560-690 deleted by the construct's name; The text says 'C-terminal 130 amino acids', but 560-690 counts 131 residues; also called 560-690 deletion derivative of p80; not shown: 37 amino acid N-terminal S-Tag from pCITE-4a+
T2 sequence: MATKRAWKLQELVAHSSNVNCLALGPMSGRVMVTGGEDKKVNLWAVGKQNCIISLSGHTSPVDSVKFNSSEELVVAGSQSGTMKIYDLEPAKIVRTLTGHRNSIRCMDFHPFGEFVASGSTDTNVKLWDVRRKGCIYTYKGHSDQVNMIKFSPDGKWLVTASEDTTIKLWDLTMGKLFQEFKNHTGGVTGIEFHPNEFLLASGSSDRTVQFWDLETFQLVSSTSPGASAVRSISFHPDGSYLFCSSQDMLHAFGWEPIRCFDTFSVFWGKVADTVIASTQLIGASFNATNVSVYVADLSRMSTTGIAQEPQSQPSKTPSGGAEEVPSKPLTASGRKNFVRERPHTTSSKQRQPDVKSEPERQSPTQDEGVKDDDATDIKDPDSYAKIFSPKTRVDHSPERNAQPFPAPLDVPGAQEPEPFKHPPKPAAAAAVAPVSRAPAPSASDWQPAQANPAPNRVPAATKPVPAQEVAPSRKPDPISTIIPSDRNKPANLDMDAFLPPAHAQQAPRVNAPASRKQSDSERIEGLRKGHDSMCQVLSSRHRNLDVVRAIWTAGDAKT

B1: p80 delta 303-690, C-terminal truncation of S. purpuratus p80 katanin containing only the WD40 domain, with N-terminal S-Tag (other)
chain: MATKRAWKLQELVAHSSNVNCLALGPMSGRVMVTGGEDKKVNLWAVGKQNCIISLSGHTSPVDSVKFNSSEELVVAGSQSGTMKIYDLEPAKIVRTLTGHRNSIRCMDFHPFGEFVASGSTDTNVKLWDVRRKGCIYTYKGHSDQVNMIKFSPDGKWLVTASEDTTIKLWDLTMGKLFQEFKNHTGGVTGIEFHPNEFLLASGSSDRTVQFWDLETFQLVSSTSPGASAVRSISFHPDGSYLFCSSQDMLHAFGWEPIRCFDTFSVFWGKVADTVIASTQLIGASFNATNVSVYVADLSRMS
notes: not shown: 37 amino acid N-terminal S-Tag from pCITE-4a+
B2: baculovirus-expressed S. purpuratus katanin p60 subunit with N-terminal His(6) tag (enzyme, not shown: small tags and cut ends)
chain: MSVDEICENTKMGREYALLGNYETSLVYYQGVLQQIQKLLTSVHEPQRKHQWQTIRQELSQEYEHVKNITKTLNGFKSEPAAPEPAPNHGRAAPFSHHQHAAKPAAAEPARDPDVWPPPTPVDHRPSPPYQRAARKDPPRRSEPSKPANRAPGNDRGGRGPSDRRGDARSGGGGRGGARGSDKDKNRGGKSDKDKKAPSGEEGDEKKFDPAGYDKDLVENLERDIVQRNPNVHWADIAGLTEAKRLLEEAVVLPLWMPDYFKGIRRPWKGVLMVGPPGTGKTMLAKAVATECGTTFFNVSSASLTSKYHGESEKLVRLLFEMARFYAPSTIFIDEIDSICSKRGTGSEHEASRRVKSELLIQMDGVSGPSAGEESSKMVMVLAATNFPWDIDEALRRRLEKRIYIPLPEIDGREQLLRINLKEVPLADDIDLKSIAEKMDGYSGADITNVCRDASMMAMRRRIQGLRPEEIRHIPKEELNQPSTPADFLLALQKVSKSVGKEDLVKYMAWMEEFGSV
notes: Expressed in Sf9 cells and purified on Ni-NTA; also called p60 katanin; recombinant p60
B3: in vitro translated S. purpuratus p60 katanin with 37 amino acid N-terminal S-Tag (enzyme)
chain: B2 chain
notes: Made in a rabbit reticulocyte transcription-translation reaction; not shown: 37 amino acid N-terminal S-Tag from pCITE-4a+

Experiments:
[1] = target: B3; assay: in vitro co-translation, immunoprecipitation with anti-p60 antibody, S-protein HRP blot
Procedure: (§1) In vitro synthesis of proteins directly from plasmid DNAs was accomplished using the Single Tube Protein System 2, T7 (Novagen). […] For immunoprecipitations, lysates were incubated on ice with Pansorbin (Calbiochem)-antibody complexes, washed in NET buffer (50 mM Tris-Cl (pH 7.5), 150 mM NaCl, 0.1% Nonidet P-40, 1 mM EDTA (pH 8.0), 0.25% gelatin 0.02% sodium azide), then resuspended in SDS-PAGE sample buffer. In vitro translation products in both the pellets and supernatants from the immunoprecipitations were resolved by SDS-PAGE, transferred to nitrocellulose, probed with S-protein HRP conjugate (Novagen) and detected by chemiluminescence.

[2] = target: the molecule itself; assay: rotary-shadowing electron microscopy of recombinant p60
[3] = target: T1, baculovirus-expressed S. purpuratus …; assay: co-expression in insect cells, metal affinity purification, Coomassie staining
Procedure: 6×His-tagged katanin subunits were purified from lysates of baculovirus-infected insect cells by binding to Ni^2+-NTA Superflow followed by elution with imidazole, as described in the Experimental Procedures. […] Proteins bound to the resin were analyzed by SDS-PAGE followed by staining with Coomassie.
Deciphering the roles of the two katanin subunits is essential for understanding the enzyme's mechanism and biological activities. […] We therefore sought to express the two subunits together and separately and then test their enzymatic activities.

[4] = target: T2, p80 delta 560-690, S. purpuratus p80 …; assay: in vitro co-translation, immunoprecipitation with anti-p60 antibody, S-protein HRP blot
Procedure: as §1

Question: Does B1 bind [1]?
Answer: no binding

Question: Which results are given for B2?
Answer: binding result [2]: binds; p60:p80 molar ratio in the co-purified protein [3]: ~0.9 mol p80 per 1.0 mol p60

Question: Does B3 bind [4]?
Answer: no binding
